{"source": "the DeepSol protein solubility set"}
{"assay": "soluble on expression in E. coli; label from the status in PepcDB or PDB records"}
{"sequence": "MICFRTAFILILGVVIGTTAKRHNVRRHVNGKWTDKHCEEPPSLKEDLATWMQISMSGQFDDTALEEWSTNGKEPEICEKSPKADGVTTIMERALCPWDSRVNYQESREPKLIAESVCLCRKSRGSTGAFCMPIVRKVPILRRVSCDRSTGLWNYVRSTELITVGCHSVLPRTQRAARLAHLSSSRIIV", "soluble on expression in E. coli": "not soluble"}
{"sequence": "MLGLRRKVRIETERMTLRLPAHSDWRDWAALRAESATFLTPWEPVWSSDHLSRKAFTNRVYWAARAESQGTALPVLLIRREDQALLGAITLDNIRRGPAQSGTLGYWIGRPHARQGYMREAIQGIVHHAFTAMDVSRIEAACLPENAASRGVLEKCGFKYEGVAQSYLQIAGRWRNHVLYANLRGDRRGRTDAG", "soluble on expression in E. coli": "not soluble"}
{"sequence": "MGSDKIHHHHHHMKMCYNEKRKNMTLRHPGISPTNDSVAKKIFSNPEITWQFIRDMLDLPAKNVTILEGSNIHVLPSLPYSAQDFYTSINVLAELDNGTQVIIEIQVHHQNFFINRLWAYLCSQVNQNLEKIRQREGDTHQSYKHIAPVYAIAIVNSNYFQDDLAFHSFSMREDTTGEALTITNNSQENHLVKMAFLELKKYRETSKDKIRKPWLEFFGNKPFTQQPERAISQAYQLLDYKSWSEEDRKMFSEQRRREEQALLAQDYALEQAEEKGLERGKVEGREEGKLFAFLDMVRQGLLTSEVASQQLGMTVAEFEALL", "soluble on expression in E. coli": "not soluble"}
{"sequence": "MMTMWVFGYGSLMWNPGFPVARRELATLSGWSRSFCMSSIHHRGTEEKPGLVLALDAVHNARCRGIAFAVEPGHEARTLDELRERELISSAYLERELEIDLDIGERVCAVTYVIDPHHEQYCGGMPLERQAQIIATAIGGRGPNTEYLYNTAAHLAEIGLGDPDLDWLSARVREITSLEHHHHHH", "soluble on expression in E. coli": "soluble"}
{"sequence": "MSLESVKCIFERHPDFASKFRPKNRHMKSTYMTVLLGLIKTMCQLPEELTDDDLDEASVAVSYVENGGLRLDWLEKKLAEVKAKKKKVETGKARLQRAEEELQKLNQKCLEMKAFLEKENADVSEANVPLSFEDVVSMIPLPNLHAKNAGYLVNGEVKIVVEINDLEVIGKLDVSEESEETNQPLKKIKLDDNDAVSFDSLNETSPVKESIDVNGFQVLPSEGHHHHHH", "soluble on expression in E. coli": "soluble"}
{"sequence": "MAHHHHHHMLSSISPKRYSFDKQGNIKEIDFLSCKSVILPEQHLNAKDNFICTTSILPNFYETPPDKASKLKMTQENNIDKANMGTNVYVQRTSSLSNMNVLQYADEVHNNLQDSNVHEINEPLIFADVNQYCGDANTQGIDPGVVAVSNALFAYNSAFQSIPIKSSPNVFKRRSKGEANSEWSNAFVTRVDPYECTDPEEEFKPYEVTKYYDEGKVKTVFNFDQENYNQDM", "soluble on expression in E. coli": "soluble"}
{"sequence": "MNQHNTRLIRLPEVLHRTGYGKAWIYHLINQNRFPSPVKIGARSVAFIESEVDEWIQLTIENSRKHVA", "soluble on expression in E. coli": "soluble"}
{"sequence": "MSLDHIIIRHAHAAVITAPLNTPFRIATGQHDQLENVFFQLKAHDGTCGYGEAAVASHITGETVEQTLANLQKAATQLAGRNGNDPVELIEEFRPLFVGNHAALAAFEMALFDLASRSRGIPFGALFSAAPGCAARPRFQSDITIVIGSLEEAETAARHYAGQGFTAFKIKVGKDHELDLQRVLAVKRIAPDSCLVLDANMGFDATGMRRFLQQLEQHGIRPDLLEQPVPKGDWDGLAAITREFAGSGMLICADESVGSLAAAELAVALKAVNAINIKFMKSGITESVRIAELACRNNIKLMLGAMMESSLAITAAAHFAATLGCFEVIDLDTTFFINGPLSRSPYLDQSGRFDLGAPGPGIGVALKLLEGHHHHHH", "soluble on expression in E. coli": "soluble"}
{"sequence": "MIGPENCNSVSEPIAYVIILAGGRSSRMGYDKAQVMVDGRRLIDLCLESIASVHAHPIVVSGQDLQLTAAVTQVMEEPAFGGPVAGIAAGMRCCDTKAGLIGVIAVDAPRSGNYLNQLRRVVLTHPEVGVAHAVVEGYDQPLLAVWRYEALTQALHALGSPRNVAAKRLLRSATTPVIAVPVDSSARDYDTVAELSALGRVRLRLEHHHHHH", "soluble on expression in E. coli": "not soluble"}
{"sequence": "GPGSMMEYADAYVGGGGRLRPGAQGSTTATGASRPYLEQRTVAPVTSALGQELDRLVGGTLAAQEYRDRLEALTRSVQASDEKVLNLTRLVKLSQSIQEEKEADLRRQNDELRARLKRQEQLTAQLQRQLEGMQGAVDAQALHHVVERLEGQMSACRGKQEEQWVAVQQRIGELEDRLQRASTCTAERCEERLMQLDERLQQVTQSTADATNQWAKRNFVRFKEQVDSLRADLDDVRGGQKELKSTVQSASCRAEIEYKKVLLLLQQKTKEADALTSLVEKELQHLQKVAHRHQILASKDITPAFEFDEKPYDALKFAAGEGKRRGAEAAAERRRR", "soluble on expression in E. coli": "not soluble"}
{"sequence": "MQPWQTDPTRAPVATKIVVAGGFGVGKTTLVTAVSEITPLQTEALMTEASEETDDLTATPGKLTTTVAMDFGRITLDDDLVLYLFGTPGQQRFWFMWDDLVRGAIGAVVLADTRRLKDCWPALDYFESCGLPYVVAVNHFDGSELFEAEDVREALTIPAHIPVMIMDARRRISAIETLLSLVGHALDETPELEHHHHHH", "soluble on expression in E. coli": "not soluble"}
{"sequence": "SVGTTSVVKNSHEEVVQTLANSLFPAQFMNGNIHIPVAVQAVAGTYQNTAQTVHIWDPQQQPQQQTPQEQTPPPQQQQQQLQVTCSAQTVQVAEVEPQSQPQPSPELLLPNSLKPEEGLEVWKNWAQTKNAELEKDAQNRLAPIGRRQLLRFQEDLISSAVAELNYGLCLMTREARNGEGEPYDPDVLYYIFLCIQKYLFENGRVDDIFSDLYYVRFTEWLHEVLKDVQPRVTPLGYVLPSHVTEEMLWECKQLGAHSPSTLLTTLMFFNTKYFLLKTVDQHMKLAFSKVLRQTKKNPSNPKDKSTSIRYLKALGIHQTGQKVTDDMYAEQTENPENPLRCPIKLYDFYLFKCPQSVKGRNDTFYLTPEPVVAPNSPIWYSVQPISREQMGQMLTRILVIREIQEAIAVANASTMH", "soluble on expression in E. coli": "soluble"}
{"sequence": "MSLSWDQVWIDVNVATMDPSISAPYGAITNAAIAVKDGKIAWLGPRSELPAFDVLSIPVYRGKGGWITPGLIDAHTHLVFAGNRANEFELRLKGATYEEIARAGGGIISTVNACREADEAELFDLGRQRLNALAKEGVTTVEIKSGYGLDTETELKILRVARELGQHHHVDVKTTFLGAHAVPPEFKDNSDGYVDLIINKMLPAVIAENLADAVDVFCENIAFNLEQTERVLSTAKAAGLQVKLHAEQLSNMGGSELAARLGAKSVDHIEYLDEAGVKALSESGTCAVLLPGAFYFLRETQKPPIDLLRQYGVPMVLASDFNPGSSPICSTLLMLNMGCTLFRLTPEEALAGLTLNAAKALGIEDNVGSLVVGKQADFCLWDIATPAQLAYSYGVNPCKDVVKNGKLIHQEGHHHHHH", "soluble on expression in E. coli": "soluble"}
{"sequence": "MPLRQKRLYWPLFFRDDLIMEKNKLQLEYVFDRVSTRSLWRYLSTPDGLSEWFAYDVRLEDNGDFYFQWDKNSGEKASVLEQREGERIRFQWHREQDQNACFEFVIHHSELTGGKSLEVIDYIAPEEVADMEHFWNNLISRLRLSLGAPE", "soluble on expression in E. coli": "not soluble"}
{"sequence": "MDFDYVIAGGGSAGCTLAARLSEDPSKTVCLIEAGGAGSNLLIRAPAGIIALLPGRPKINNWAFETVPQQGLGGRKGYQPRGKALGGSSAINAMLYTRGHRGDYDEWADLGCDGWSWDEVLPYFRRAEGNQRGADALHGGDGPLRVAEQQEPRPLSRAFVEACGENQIRRNDDFNGVEQEGAGLYQVTQFWGERRNGERCSVAAAYLQPAMNRSNLTVITGAHATAVILDGKRATGVRYRAGKDEAVAKARREVIVCGGAFGSPQLLLLSGIGPAAELAMHGIPVIHELPGVGKNLQDHLDFIMGWTSKDADMMGIGLRGLPGLLRHMLRWRKDGGGMIATPYAEGGAFLKSDPAIERPDLQLHFCIAIVDDHGRKLHMGYGFSCHVCVLRPHSRGEVGLSTHDPMAPPRIDPRFLSDERDAELLLKGVRMMRGILEAPALARYRHKEIYTAGVSSDADLMSHIRARADTIYHPAGTCKMGVDELAVVDPQLRVHGLEALRVVDASVMPTLIGGNTNAPTIMIAEKAADMIKAAALEHHHHHH", "soluble on expression in E. coli": "not soluble"}
{"sequence": "MEILRRECGAVEENAYIVKLSSGIDFIIDPGFSSSEWVLENAKNPKAILITHGHYDHVWDGAQLSKLLKNTPIYAPKDDVFMLENDIFHLGMPVFSPNFSVPCNKGCTTLEIANTTIKYWHFPGHTPGCSIIEIEGVIFSGDFIFYRSIGRYDFPYSNEKDMKESLLRFQNLDFPKDIEIYPGHGDKTSFFAEREHSKIWVSRMALEHHHHHH", "soluble on expression in E. coli": "not soluble"}
{"sequence": "MYRSEVSKPQLENPNLVDRIIVIILPNYFYEYESVLKHITKENFGIIEKTVKHFKTEEVMEWKSADLESQDIWNLSDRLIDGPCMLLLCQRANAFIEMKEVAKYHNVIAKRMSSSDGIYYSKTTIAAYHDIIFFFPKYIDERAMLKHAKDYLSVEVWPKLSQGLARVAVERPDNPIKWLADYLHQLRQ", "soluble on expression in E. coli": "not soluble"}
{"sequence": "MGSDKIHHHHHHMLKLCGFAASNYYNKVKLALLEKNVPFEEVLAWIGETDTTATPAGKVPYMITESGSLCESEVINEYLEAAYPQTPLLPRDPMQAGKVREIVTFLELYLELTARELYPEAFFGGKVSDNVKERQLKLLSRYVPAFAKLAKFSPYVAGDTFTLADCAAAVHLPLVSSCTKIIYGKDLLADLPVKEYLKTLSERPSVQKVNADRKANTELMLSRNK", "soluble on expression in E. coli": "not soluble"}
{"sequence": "MGHHHHHHSHDTISHQLEWRSLKSQETTGAGEDVEKQEQLLHCWWDCKLVQPLRKSVWQFLRNLELEIPFDPAIPLLGRYPKDYKSCCYKDTCTRMFIAALFTIAKTWNQPKCPTTIDWIKKMWHIYTMEYYAAIKNDEFMSFVGTWMKLETIILSKLSQGQ", "soluble on expression in E. coli": "not soluble"}
{"sequence": "ENKILKIEKGTSGWGGPLYIKKEGNRNKILSMTAGGIHEVTLKIKELLGCEIVDGFKTGVSDEEVAVVIIDCGGTARCGVYPKKKIPTINVNPVGKTGPLAKFITEEYYVSDVNPNCISVVDGEDMPQKSQENKSENKSSIRKPDNYDEVKSKAQGEYAKKNIILSIGQGAGQVVSKFYDAGRDTIQMVMNN", "soluble on expression in E. coli": "not soluble"}
{"sequence": "MGSDKIHHHHHHMNILAPVSSVKEAEQLIAHGADELYCGIGLGALKNRPGNTDREIWINRRESGNANIPDLESLSLLVDHAHAQGKKVYLTLNQPGYAQDLYGEILAFVREVKKSCQVDAFIVADPGLIRMLIGKEPDMVIHVSSLAGVLNSSAVLFFKKLGVKRIVFPRYLEAETLKKIMDRAGEDLEYEVFILNDGCMFEESHCHVSHQFGGAFCHNPAWRYKLIPPEEGGILETWKLRNLKIAGETFEGNVEEWKRWQWLGIKNGGGYIGAKYPLGMCGLCTLPEYRDMGITSLKIVGREAPLSKKIKSVQLLKKVLDYQREEHLPDEVRDYARRTKGARLLCGSGYMCYER", "soluble on expression in E. coli": "not soluble"}
{"sequence": "MKEKIPFYNEKEFHDMVKKTKKGTFSGWYIINKNNNSVEFSGSFNRQFKLNKPVIPVNTEYVTRKEFNEYKDSNDQRLTKIETELKSQGQRIQVVEDKVDRLTEVVMVQSQQIKTQGEAMNARMDRFESLVLKSLESIGNTLTDFGKRLDVIETRLDKIDPPK", "soluble on expression in E. coli": "soluble"}
{"sequence": "SAAAAFDPLGPLPVYLVSVRLGIYEDEHHRVWIVANVETSHSSHGNRRRTHVTVHLWKLIPQQVIPFNPLNYDFLPTTWKLESRNIYWATDGTHWRLLDHSQLGDTEQLILMLVLG", "soluble on expression in E. coli": "soluble"}
{"sequence": "MSGKERNLPTHRISRFSKFASLATRVAGNVIAEGTKQIAKGNRPKAKDLLLTPQNIARLTDQLAHLRGAAMKLGQMLSMDAGDILEPELAEILARLRSNADPMPSKQLNSVMVNALGEQWKSAFLAFNFKPIASASIGQVHQAYSDAGDNLAVKVQYPGIRKSIDSDVDNVGTLLKIVGLIPESVDYKGLLEEAKKQLYDEANYEREAQFACRYHEALQGHPHFVVPKIYPEISSQSVLAMSFIQGTPIEKIANYDQETRDFVMHNLLELLFKELFEFKMVQTDPNFANYLYLEESKQIGLLDFGATREYSERFSSGYRQAFSSVVNDDEQGLNDALEQIGFFAQSIKPEQRMAILDLVKMACEPMLIDEAYDFKASGLAQKLREAGTILSMEQDYWHTPPADAIFLHRKIGGMYLLAARIGAKVNIRRLVQPYLKINSGLEHHHHHH", "soluble on expression in E. coli": "not soluble"}
